In one experiment the target is mouse B6 class I antigens (Mouse MHC Class I; D^b or K^b molecules on the surface of RMA-S cells). Put plainly: RMA-S class I stabilisation, flow cytometry with FITC anti-D^b or anti-K^b; % increase of MFI over medium alone, peptide 25 ug/ml. For orientation: In flow cytometry, cells or beads pass a laser one at a time.
Consider GCNKRYFKL [WT1 peptide p329-337 (…)], for which the Binding Affinity to Mouse MHC Class I is 1.2%.
Still for that read-out and setting: for SCLESQPAI [WT1 peptide human p136-144 (…)] the value was 52%; for ALLPAVPSL [WT1 peptide human p10-18 (…)], 2.2%.
Same read-out and setting: for YSSDNLYQM [WT1 peptide p221-229 (…)] the value was 0.8%; for QMTSQLECM [WT1 peptide p228-236 (…)], 1.2%.
Same read-out and setting: next, CMTWNQMNL [WT1 peptide p235-243 (…)]: 33.6%; NLYQMTSQL [WT1 peptide p225-233 (…)]: 5.8%; NQMNLGATL [WT1 peptide p239-247 (…)]: 1%.

The target is the same in another experiment. Put plainly: binding of 9-mer peptides within p117-139 to mouse B6 (H-2^b) class I antigens; RMA-S assay as for Table XLVII.
In the case of PSQASSGQA [WT1 peptide P117-125 (…)], the Binding Affinity to Mouse MHC Class I was found to be 2%.
Still for that read-out and setting: next, PNAPYLPSC [WT1 peptide P129-137 (…)]: 1%; SQASSGQAR [WT1 peptide P118-126 (…)]: 2%; ARMFPNAPY [WT1 peptide P125-133 (…)]: 1%.
Same read-out and setting: for NAPYLPSCL [WT1 peptide P130-138 (…)] the value was 79%.
The same measure, in the same setting: next, SSGQARMFP [WT1 peptide P121-129 (…)]: 1%.
Turning to ASSGQARMF [WT1 peptide P120-128 (…)], the Binding Affinity to Mouse MHC Class I amounted to 1%.
Molecule APYLPSCLE [WT1 peptide P131-139 (…)] showed a Binding Affinity to Mouse MHC Class I of 1%.
Molecule QARMFPNAP [WT1 peptide P124-132 (…)] gave a Binding Affinity to Mouse MHC Class I of 1%.
On the same count and under the same terms, for MFPNAPYLP [WT1 peptide P127-135 (…)] the value was 2%; for QASSGQARM [WT1 peptide P119-127 (…)], 2%; for FPNAPYLPS [WT1 peptide P128-136 (…)], 1%.

The record behind these values is patent US20120301492A1.
